Experimental data reported in PMC4772129, “nagZ Triggers Gonococcal Biofilm Disassembly” (Scientific Reports, 2016).

System: CC(=O)N[C@H]1[C@H](Oc2ccc([N+](=O)[O-])cc2)O[C@H](CO)[C@@H](O)[C@@H]1O
Assay: purified protein
Conditions: KPO4 buffer 200 mM, pH 8.0, 37 °C (standard assay)

Substance: NagZ (Neisseria gonorrhoeae FA 1090)
- Km: 3.2 mM
